According to the supplement of paper PMC9170038:

System: MS2 coat protein
Assay: apparent KD of MS2 coat protein; designed switch direction (-1 OFF switch, 1 ON switch): 1; higher = weaker reporter binding
How it was run: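 Designed RNA switches with common flanks were transcribed on Illumina chips by stalled E. coli RNA polymerase and titrated with SNAP-549-labelled MS2 coat protein, from 0.7 or 1.5 nM doubling to 3 µM, in Tris-HCl pH 7.5 buffer with KCl, MgCl2, BSA, DTT, tRNA and Tween-20. Steps lasted 0.8–1.5 h (lowest) to 10–20 min (highest). Titrations ran without input, with 200 uM small-molecule ligand, or with an oligonucleotide input. Normalised cluster fluorescence was curve-fitted, and apparent KD is the per-design median over clusters.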

[1] = input ligand: microRNA oligo, concentration not stated
[2] = Eterna round: R95, input ligand: FMN 200 uM
[3] = Eterna round: R95, input ligand: microRNA oligo, concentration not stated
[4] = Eterna round: R95, input ligand: none

“ACAUGAGACUCAGGAUAUAUUGUACCUACAUGUGACAUGAGGAUCACCCAUGUGGUAAGUAUGACAUAGAAGGGAGAGAUAUGU [Equivalance 86 - Jieux - Same State NG 2] (Eterna round: R96, puzzle: Same State NG 2)” was tested, and the “apparent KD of MS2 coat protein” value (input ligand: FMN 200 uM) was 37.3 nM, the “apparent KD of MS2 coat protein” value [1] was 40.5 nM and the “apparent KD of MS2 coat protein” value (input ligand: none) was 59.9 nM.
With “GGCAUGCGGCGUACCGUAUGCUGGUAUGUACAUGAGGAUCACCCAUGUCAUGUACAGGCUUUUUGCUCGUCUUAUUG [JL-shm-2.40 JL mod] (puzzle: Sensor for hsa-mir-208a)” the “apparent KD of MS2 coat protein” value [2] was 128 nM, the “apparent KD of MS2 coat protein” value [3] was 28.7 nM and the “apparent KD of MS2 coat protein” value [4] was 157 nM.
For “UUUAUUAAUAUAGGAUAUGUAAAACAUGAGGAUCACCCAUGUGAUAUCGUGAGUAAGGAGAGAGAACAGAAGGAUAAUUUUUUU [JMF's solution 2] (Eterna round: R96, puzzle: Same State NG 2)”, the “apparent KD of MS2 coat protein” value (input ligand: FMN 200 uM) was 39.7 nM, the “apparent KD of MS2 coat protein” value [1] was 35.1 nM and the “apparent KD of MS2 coat protein” value (input ligand: none) was 32.5 nM.
“GGUGGGUUGCUGCCGGCACAUGAGGAUCACCCAUGUUUUGGGAAGGAUAUGGUACCUGUUUGGUGCCAGAAGGUCCCGUUGGUG [salish99_SSNG3_r04_711] (Eterna round: R96, puzzle: Same State NG 3)” was tested, and the “apparent KD of MS2 coat protein” value (input ligand: FMN 200 uM) was 864 nM, the “apparent KD of MS2 coat protein” value [1] was 526 nM and the “apparent KD of MS2 coat protein” value (input ligand: none) was 522 nM.
In the case of “UUUAGUUGCGGGCAGGAUAUGUAUUAAAAUACAUGAGGAUCACCCAUGUGCGGGUGUAACACCCGACAGAAGGGCCAAUCGCGAC [Laonerce - 13] (puzzle: Same State 2)”, the “apparent KD of MS2 coat protein” value [3] was 220 nM.
For “ACGCAGCUGGGUGAGGAUAUCGGUGGUACAACAUGAGGAUCACCCAUGUCCGAAGCUCGGACCUCCGAGAAGGCGCCCGGCUGCG [Soinraesar Omei Mod 2] (puzzle: Same State 2)”, the “apparent KD of MS2 coat protein” value [2] was 17.4 nM, the “apparent KD of MS2 coat protein” value [3] was 24.8 nM and the “apparent KD of MS2 coat protein” value [4] was 57.8 nM.
With “AAAACAUGACGAGGAUAUGGAACAUGAGGAUCACCCAUGUAUGUUCCAUAACGCGAAUGACGAAUCCAGAAGGCGUCGUGAAAA [Mat - Same State NG 2 - JL mod - D27] (Eterna round: R96, puzzle: Same State NG 2)” the “apparent KD of MS2 coat protein” value (input ligand: FMN 200 uM) was 25.1 nM, the “apparent KD of MS2 coat protein” value [1] was 181 nM and the “apparent KD of MS2 coat protein” value (input ligand: none) was 272 nM.
In the case of “AAAAGAAGAAUGUAGGAUAUACAAAAGAACACAUGAGGAUCACCCAUGUGAGCCUAAUGUAAGAAGUAGAAGGACAAAGAGAAAA [Default title] (puzzle: Same State 2)”, the “apparent KD of MS2 coat protein” value [2] was 91.3 nM, the “apparent KD of MS2 coat protein” value [3] was 62 nM and the “apparent KD of MS2 coat protein” value [4] was 67.3 nM.
“UGGUACAUGGGAGGAUAUCAUGUAGAAACAUGAGGAUCACCCAUGUGGAUGGAGACAUCGGAGAUUGAGAAGGCCCAUGUACCU [JL SSNG1 3.56] (Eterna round: R96, puzzle: Same State NG 2)” was tested, and the “apparent KD of MS2 coat protein” value (input ligand: FMN 200 uM) was 15.6 nM, the “apparent KD of MS2 coat protein” value [1] was 20.9 nM and the “apparent KD of MS2 coat protein” value (input ligand: none) was 25.2 nM.
In the case of “CACGUCCAGGUAGGAUAUGAGGUGCCAUAGGGAACAGCCUAUGGACAUGAGGAUCACCCAUGUCCUCAGAAGGGCCAGACGUGA [Rasote] (Eterna round: R96, puzzle: Same State NG 2)”, the “apparent KD of MS2 coat protein” value (input ligand: FMN 200 uM) was 25.7 nM, the “apparent KD of MS2 coat protein” value [1] was 116 nM and the “apparent KD of MS2 coat protein” value (input ligand: none) was 171 nM.
“GGGAGAGCCGCAGGAUAUGGUGAGGAUUACCCACUAGAAGGGUGGACAUGAGAAUCGAACAUGAGGAUCACCCAUGUUCUGAGG (Eterna round: R96, puzzle: Same State NG 1)” was tested, and the “apparent KD of MS2 coat protein” value (input ligand: FMN 200 uM) was 200 nM, the “apparent KD of MS2 coat protein” value [1] was 219 nM and the “apparent KD of MS2 coat protein” value (input ligand: none) was 386 nM.
For “AGCCGAGACACAGGAUAUACAUGUAUACAUGAGGAUCACCCAUGUAGCAACACGUGGUAGUGAUUGUAGAAGGGUGCUCGGCGC [Omei SS(NG)2 Cv13] (Eterna round: R96, puzzle: Same State NG 2)”, the “apparent KD of MS2 coat protein” value (input ligand: FMN 200 uM) was 20.4 nM, the “apparent KD of MS2 coat protein” value [1] was 32 nM and the “apparent KD of MS2 coat protein” value (input ligand: none) was 36.8 nM.
For “ACAUGAGAGAUAGGAUAUUGUGUACCUACAUGUGACAUGAGGAUCACCCAUGUGGUAAGUAUGAGCAAGAAGGAUCAGAUAUGU [Equivalance 51 - Jieux - Same State NG 2] (Eterna round: R96, puzzle: Same State NG 2)”, the “apparent KD of MS2 coat protein” value (input ligand: FMN 200 uM) was 23.2 nM, the “apparent KD of MS2 coat protein” value [1] was 35.9 nM and the “apparent KD of MS2 coat protein” value (input ligand: none) was 69.5 nM.
“UUGGUUCUCGUAGGAUAUGUAGGAUAUGCCUACAUGAGGAUCACCCAUGUUCGCAUGGCAGAAGGACAGAAGGACGAUCACCAU [pwkr ssNG2 2FMN + 1F5.17] (Eterna round: R96, puzzle: Same State NG 2)” was tested, and the “apparent KD of MS2 coat protein” value [1] was 136 nM.
In the case of “UACCAACAUAUAGAACAAGCGUGCUCGUCACAUGAGGAUCACCCAUGUCUAAACGCUGUACCUACAUCCUCAGCGCC [Eddiso] (puzzle: Sensor for hsa-mir-208a)”, the “apparent KD of MS2 coat protein” value [2] was 23.3 nM, the “apparent KD of MS2 coat protein” value [3] was 24.6 nM and the “apparent KD of MS2 coat protein” value [4] was 22.8 nM.
With “UGUUAUUAGACAGGAUAUUGAAUGUUAAGUAUUAACAUGAGGAUCACCCAUGUAUUUCAUUCGUACAAGAAGGGUCAUGUUCCU [JR_SSNG2_Sub017] (Eterna round: R96, puzzle: Same State NG 2)” the “apparent KD of MS2 coat protein” value [1] was 162 nM.
With “GUAUCUACAGGUUUUUUAGCUCGUCUGAUACAUGAGGAUCACCCAUGUUAUAGCCCUGUGCUUGCGCAGGGCUGAGG [Sensor for hsa-mir-208a ( MOD of Tearor v.4 )] (puzzle: Sensor for hsa-mir-208a)” the “apparent KD of MS2 coat protein” value [2] was 47.6 nM, the “apparent KD of MS2 coat protein” value [3] was 34.1 nM and the “apparent KD of MS2 coat protein” value [4] was 49.3 nM.
In the case of “ACAUGAGACCAAGGAUAUUUUGUACCUACAUGUGACAUGAGGAUCACCCAUGUGGUAAGUAUGAGAGAGAAGGUGGAGAUAUGU [Equivalence 23 - Jieux - Same State NG 2] (Eterna round: R96, puzzle: Same State NG 2)”, the “apparent KD of MS2 coat protein” value (input ligand: FMN 200 uM) was 34.4 nM, the “apparent KD of MS2 coat protein” value [1] was 21.5 nM and the “apparent KD of MS2 coat protein” value (input ligand: none) was 36.5 nM.
In the case of “AUAAAACAUGAGGAUCACCCAUGUCAACAAAGUCGAGGAUAUUGGCAAAUAAAAUAAGAACCAGAAGGCGAAUAAU [salish99_ss1_r3_050] (puzzle: Same State 1)”, the “apparent KD of MS2 coat protein” value [2] was 17.5 nM, the “apparent KD of MS2 coat protein” value [3] was 23.1 nM and the “apparent KD of MS2 coat protein” value [4] was 23.4 nM.
With “GUUAAACAUGAGGAUCACCCAUGUAAUCAUAUGGGAGGAUAUGGGAAUUAAUUAAUUAAACCAGAAGGCCUAAUUG [Mat - Same State 1 - D83] (puzzle: Same State 1)” the “apparent KD of MS2 coat protein” value [2] was 19.6 nM, the “apparent KD of MS2 coat protein” value [3] was 87.4 nM and the “apparent KD of MS2 coat protein” value [4] was 92.3 nM.
“GGUCCAGCCUGAGCUGGACAAAAGCAUGUACAUGAGGAUCACCCAUGUUCAUGUACAAGCUUUUUGCUCGUCUUAGC [salish99_208a_r3_071] (puzzle: Sensor for hsa-mir-208a)” was tested, and the “apparent KD of MS2 coat protein” value [2] was 534 nM, the “apparent KD of MS2 coat protein” value [3] was 12.7 nM and the “apparent KD of MS2 coat protein” value [4] was 468 nM.
For “GGCUAUCGCGUUCGAUAGCUUAAGCAUGUACAUGAGGAUCACCCAUGUCAUGUACAAGCUUUUUGCUCGUAUCUUAU (puzzle: Sensor for hsa-mir-208a)”, the “apparent KD of MS2 coat protein” value [2] was 94.6 nM, the “apparent KD of MS2 coat protein” value [3] was 12.1 nM and the “apparent KD of MS2 coat protein” value [4] was 119 nM.
“UUUUUUUUGACGAGACAAGCUUUUUGAUCACAUGAGGAUCACCCAUGUCUCGUCUUAUUUUUUUUUUUUUUUUUUUU [BA Sensor hsa-mir-208a - 2 - 2] (puzzle: Sensor for hsa-mir-208a)” was tested, and the “apparent KD of MS2 coat protein” value [2] was 17.4 nM, the “apparent KD of MS2 coat protein” value [3] was 9.64 nM and the “apparent KD of MS2 coat protein” value [4] was 7.54 nM.
